Measurements reported in the DeepSol protein solubility set.

Assay: soluble on expression in E. coli; label from the status in PepcDB or PDB records

| Sequence | soluble on expression in E. coli |
| --- | --- |
| MFNKAIVIGGSMAGKFAAKALSTSFKEVIIIEASERWDGKSSRKRVPQSNHPHVLLKGGENAIEELFPNITDELIEAGSIVNNFTRDLKWHQFGLWKQPFIGEVHMIQQSRPLLEWNIQKRIHQISNITIKYETLVKGLLVDEKLNKVCGVKVKYLETDAQEEVHADLVVDASGFGSKSIEWLREYEIEVQEEKVRINLFYATKMFKLKENEELDCCNMLMSPSFPDNPYGVLIQTIEDNRYFVTFSGYANEKAPQTDDEFYDFAENLSISNVTDFLNKAVAISDIKTYKIPYQVRRRFDLTTNMPEGLLVVGDAHCRFDPVFGQGVSVAAMEARQLQLLLQGRKQLDKTFTQQFYKKAATIIETPWEMTTTEISRHPQLKRELTIKQKFQLWYTKQIYQLSATDSDVYIRLVKVMNLIRSPFHLFHPKVLLAVLLKRKKLEHHHHHH | not soluble |
| KEATWVTDKPLTLKIHMHFRDKWVWDENWPVAKESFRLTNVKLQSVANKAATNSQEQFNLMMASGDLPDVVGGDNLKDKFIQYGQEGAFVPLNKLIDQYAPHIKAFFKSHPEVERAIKAPDGNIYFIPYVPDGVVARGYFIREDWLKKLNLKPPQNIDELYTVLKAFKEKDPNGNGKADEVPFIDRHPDEVFRLVNFWGARSSGSDNYMDFYIDNGRVKHPWAETAFRDGMKHVAQWYKEGLIDKEIFTRKAKAREQMFGGNLGGFTHDWFASTMTFNEGLAKTVPGFKLIPIAPPTNSKGQRWEEDSRQKVRPDGWAITVKNKNPVETIKFFDFYFSRPGRDISNFGVPGVTYDIKNGKAVFKDSVLKSPQPVNNQLYDMGAQIPIGFWQDYDYERQWTTPEAQAGIDMYVKGKYVMPGFEGVNMTREERAIYDKYWADVRTYMYEMGQAWVMGTKDVDKTWDEYQRQLKLRGLYQVLQMMQQAYDRQYKN | soluble |
| MKKLYGVIGNPIGHSMSPDIHNASLKDLGLDGHYHAFKVEENDLEDAVKGIRALGVQGINVTVPHKVSIMDYLDHIDESAKVLGAVNTVRREGDKLVGYNTDGEGFVKSLMKVLDKPISELSFLMIGAGGAARAIFTTFVRNTPKKFDICNRTLEKAKRLTEATPSFHNKEVLSIKEAEERLEQYDVIIHTTSVGMYPNVDDVPLSLQRAASSAVVCDIVYNPIQTALLKEASQKGLKTLDGVGMFVEQAALSFQLWTGQEPNIEKMRSIVIGKLGGTECLEHHHHHH | soluble |
| GALVPRGSHMADPSLNNPVVIQATRLDASILPRNVFSKSYLLYVIAQGTDVGAIAGKANEAGQGAYDAQVKNDEQDVELADHEARIKQLRIDVDDHESRITANTKAITALNVRVTTAEGEIASLQTNVSALDGRVTTAENNISALQADYVSKTATTSQSLASPLNVTTSYSVGGKKVVGARQTGWTAATGTANKGVFDADLTFAVSDTYTQSEIQAIANALITERRRTKAMEDALRAHGLID | soluble |
| MATFPHFGTAAIHVGQEPEQWDMNQVVPPISLSSTYKQDNPGEPKGHDYSRAGNPTRDVLQKNLAALEDAKHCQVFSSGLAATSAIINLLKYGDHIVCSDDVYGGTQRYIRRVAVPNHGLEVDSVDLTDVQNLEKAIKPNTKMVWFESPSNPLLKVVDIAAVVQTAKKANPEIVVVVDNTFMSPYFQRPISLGADVVVHSITKYINGHSDVVMGAVITDNDEFQQHLFFMQLAVGAVPSPFDCFLVNRGLKTLHIRMRAHYENALAVAKYLEANDRIESVLYPALPSHPQHEVHEKQTKGMSGMISFYLKGELQESRAFLSALKVFTLAESLGGYESLAELPSIMTHASVPAETRIVLGITDNLIRISVGIEDLDDLVADLDQALKIAIPKV | not soluble |
| MAQTTINEQTLVNEQRLLAYDCFQNTNKVGLLSALEYLDFVNHLVKSNQIKYLLVPSASQTVYQHVFFDHFRFLSFDNNLLSGFGLAIRLHKEAETVFMLVEKTKQTETEIKKLLEAVKQFSGLKLVVLLVNSPFENKRTKLSYEIVKIIKKHGYQYKRYCRKNFEKKFFNTWNHQKRKQKTKNNLFFVELNSQFAFGTSMANSNSFDLSFTSFKERFNTENNLDIDVHFNVPHKYLLKNLESIKHHLQIDNNTIWKQAFINFAGQLLLYFENLQVFAQEASTLQVNAIVIKQDAYFIVEVMKGYNYDNNCICLLEANKDQNVGLTTASTNTLIGDIKQYEPCFFIEK | soluble |
| GDKVIVMGHKRPDLDAIGAAIGVSRFASMNNLEAFIVLNDSDIDPTLRRVMDEIDKKPELKERFVTSDEAWDMMTSKTTVVVVDTHKPEMVLDENVLNKANRKVVIDHHRRGESFISNPLLVYMEPYASSTAELVTELLEYQPTEQRLTRLESTVMYAGIIVDTRNFTLRTGSRTFDAASYLRAHGADTILTQHFLKDDV | not soluble |
| MRVNVPVQVPPPASPPQPSQPAGQAQGGVTAPVIKVLPGNPLPPAGSAFVDDFSSYPTGAVLPMVAPDRYGVYKAPNGTLSPAVAETFTPQGGLDKALRLEAANTAMLTTGAPDWTDYRVSFRFKYETGGTLDVGLFVHGSGDRMLIVRLGWGYTGGVHLIKVAGDQRFTLVSRRELKPLTEALKDQNWHDFAAEARSDGTVRVMVDQQTVIEWKDPDYRAGGIGIGINRLGDRIIWHIDDLKVERL | soluble |
| MAHHHHHHMSNPWNAKLVEELLFRQYEKGEDVSMLLPPPPALSVDQYLKEYEQSTKVLFAYVRNGPANALTPQNINNPRMYGGTPTKGSSSMQRTGNQGGATCATTSSSSACGVDSKAQMQRHPRGLDGSQSAAPSLPLTAGDAAAGQGSMAPPEHIRKRIEWPATVPTNSALKSNSRSRVANLTTKRVAAQERVDPDLIFMQNPEELPLHTIFAKYPKAVESIAALRGGSGDWREDTFTEEEEILYKRELRYSHMGPSQCGFFRSNLIQR | not soluble |
| MDQKKDPSNNLTERRVSKVQRPNKKKVRNQVESLSRNLERNKEGQLLQTVSKGHLEADSGHSLGREKENGELGIRSIFYDKDWNPRGTAPSHYRNIPYNPATFKRRTEVQARLGNLENIKIPK | not soluble |
| MNVKPLQAKDVAEKVLFGELFILDVRNEADYEDWKIEGKQVSSINKPYFDLLDGVDHIVSELPKDKDVLVVCAKEGSSIFVAEQLTEAGLQNIYYLAGGMKAWSEYVKPIKVGNLKDGGSMYQFNRLGKGCLSYMVISNGEAAVIDAVRTAEAYEEFAKEHGVTIKNVMDTHLHADHISGGRKLAEKVGGTYWLPPKDAEEVVFSYEPLVEGSVITVGGTKIEIDALYSPGHTIGSTSFIVDDSYLLSGDILFVDSIGRPDLAGKAEDWVSDLRNTLYSRYKELSQNLVVLPAHYSKVSEMNESGIVSAKLKDLFANNAGLNIEDEGEFRKVVTENLPPQPNAYEEIRQTNMGKIHPSVDKEREMEIGPNRCAVHE | not soluble |
| MGRLADTLDALSVRALSPDHRIQGQLHHRTKVDISFTSEDSYYEYKSEQAVAAQLSAVLNALIVGRNEGFCAAVREVTDLRLDDRPHWDARRRRFREERDGAPLEGQSAGGWLTVASVGLRDANATVKPGAFDELDASGFLIEVHSAIADLWKDQAMAMSYLRRTHFG | not soluble |
| GPGSGRYREGVEDCTKTLQIDKEFYKAYARRARCHEHLGDHFAAVRDFKKAIEYDSTDRELARELRAAEQNLAKEAEKERDFYFQLGVSRTATEREIKLKYRELSLRWHPDKCIGLDEVERERAEHKFKIISEAYATLVDAGKRREYDAKQDRERFTRAGGFNFSSTYSGGNANDYYRGRHRAGGNGFW | soluble |
| MKKHHHHHHEDFHGIDIVINHRLKTSLEEGKVLEKTVPDLNNCKENYEFLIKWTDESHLHNTWETYESIGQVRGLKRLDNYCKQFIIEDQQVRLDPYVTAEDIEIMDMERERRLDEFEEFHVPERIIDSQRASLEDGTSQLQYLVKWRRLNYDEATWENATDIVKLAPEQVKHFQKK | soluble |
| MSLNVRIYCRASTEGQHADRALTSLREFSKSKGWQIAGEYIENASGAKLERVELMRLLSEAQSGDLLLVEAIDRLSRLEHSAWVELKDTLNRKGLIIVSMDLPTSWQMVEMAGNDLTSGILRAVNAMLIDILATMARQDYETRRKRQQQGIERAKSEGIYIGRAKNQEAREIVREMLEQGVKPELIMKAAGISRATYYRIKNELLIVKSEGHHHHHH | soluble |
| RAKGTLRIWAEPFTKLRVPKIFNLRMDPYEVADVTSNTYYDWMLDRAYMLVPAQTYVGRFLETFKEFPPRQKAASFSLDQVMEKLQENPNK | not soluble |
| ANNGAHRDMDLNTFIASAEAIAPYLHSFVSAGWESAGNPAAQLLSALRPIGIEAEQAMFAATQGVNTHKGMIFILGLICGSVGWLKANQLKIDAQHIGETIRQACQFLVIDELKAKRDCEPETAGERIYRQYGLTGARGEAASGLAMVMQHALPAYQACLTKGASTEQALWHTLLVLMANNNDSNLVSRGGLAGLHFVQEQAQQLLAKGGFLYQEIEQALTALDSVLIEKHLS | not soluble |
| MGHHHHHHSHMKSREGSVHPQVEIANLLLIQSSLANLPPGPCWFCLASPEVEKHLVVNIGTHCYLALAKGGLSDDHVLILPIGHYQSVVELSAEVVEEVEKYKATLRRFFKSRGKWCVVFERNYKSHHLQLQVIPVPISCSTTDDIKDAFITQAQEQQIELLEIPEHSDIKQIAQPGAAYFYVELDTGEKLFHRIKKNFPLQFGREVLASEAILNVPDKSDWRQCQISKEDEETLARRFRKDFEPYDFTLDD | not soluble |
| MVGFLKHLVPKRFRKKELVIPVVRMQGAIMAGGNQFRPALNLASYAPLLEKAFAVKDAPAVAISLNSPGGSPVQARMIYNRIRQLAEEKDKKVLIFVEDVAASGGYMIALAGDEIIADPTSIVGSIGVVSGGFGFPEMLRKIGVERRVYTAGENKVILDPFQPEKEGDIDYLKSLQVEIHNVFIDMVKMRRGSKLKGDDALFSGLFWTGMRGLDLGLIDGLGDMREVLRRRYGTKVKLQLISGGRSLFGKKVPGVNMALGLNAERLAAGAVSGLAEVAEEKALWSRFGLLEHHHHHH | soluble |
| GKDFTYNVDANVSFARNKILYMDEVPKQFSYMNQTGGSTGRQTGVYNYIRLYQYSDFITGADGELTLKPELPQPYQKVYPGDAMYADLNGDHIVDGNDKSVAGYATRPEYVFGMNMGFDWKGFNFTMQWVGSKNVNRMYDIEYRIPYTNAGKRGLLTYFYDGCWTPENQLGATYPRPSEESESWNSEPSTLWLVDASYLRLKSLSFGYTITGKKFLKKLGLSSLGLNFSGYNLLTFSPLKYLDPESDPNRFGDYPLIKVYSFGLNLNF | not soluble |
| MGSDKIHHHHHHMKHTEMSLTDKKIIITRAQEQTSEARKIFRKNGAEVFDLPSLVIGPPDDWAPLDDALKKISTFDWIIFSSANGVRNVEDRMREIGLSLSKISKTIQIAAVGRKTASLLSDMDAEISFVPPSFVADSLLEYFPQNQKGLKLFIPRVQTGGRSILSDSFRLNGAEVTEVAAYESSCPKDVPQKTIEALKSGEIDIIAFTSGKTVINTVSLFNKYFGGNWFKLIEKIKLVSIGPQTTISCKKLIRKPDKEAEPHDLEGLLNACLELKFN | not soluble |
| MEKSVSVILLAGGQGKRMKMSMPKQYIPLLGQPIALYSFFTFSRMPEVKEIVVVCDPFFRDIFEEYEESIDVDLRFAIPGKERQDSVYSGLQEIDVNSELVCIHDSARPLVNTEDVEKVLKDGSAVGAAVLGVPAKATIKEVNSDSLVVKTLDRKTLWEMQTPQVIKPELLKKGFELVKSEGLEVTDDVSIVEYLKHPVYVSQGSYTNIKVTTPDDLLLAERILSEDS | soluble |
